Tests used:
[1] = test system: HUVEC (human umbilical vein endothelial cells); experiment: HUVEC cytotoxicity assay: calcein release after attack by TNF-primed, α-PR3 mAb-activated neutrophils; assay type: cell-based; details: for % Release / Mean (fluorescence): 0.25 mg/mL, α-PR3 mAbs +, 4 hours at 37° C.; for response in fluorescence release: all doses tested
From the text: A cell culture provides a model of the blood vessels by using HUVEC (human umbilical vein endothelial cells) cultured to 80-90% confluence as a representation of the blood vessel wall. The following is a model of GPA in cell culture using HUVEC and human blood neutrophils that are primed and activated by c-ANCA in the same manner as the disease. HUVEC are sensitized to inflammatory damage by pre-exposure to BCNU and ionomycin. In the disease state of Granulomatosis with Polyangiitis (GPAANegener's), activated neutrophils attack the blood vessel walls. This study evaluated two compounds, A1PI (α-1-antitrypsin; Sigma Aldrich Cat. No. A9024, lot SLBL9794V, 90% purity) and elafin (AnaSpec Cat. No. AS-61641, lot 1360190, 95% purity), and their ability to mitigate the induced damage to HUVEC as a model of the vascular endothelium compared to the negative control al-antichymotrypsin (Athens Research & Technology, Cat. No. 16-16-012400, lot AX2014-02, >95% purity). al-Antichymotrypsin was chosen as a negative control due to its structural similarity to A1PI and lack of activity against the PR3 receptor. α-1-Antichymotrypsin inhibits neutrophil cathepsin G and mast cell chymase.
Confluent HUVEC was labeled with calcein-AM as a fluorescent marker. Calcein-AM is a cell-permeant dye that can be used to determine cell viability in HUVEC (and most eukaryotic cells). In live cells the non-fluorescent calcein AM is converted to a green-fluorescent calcein upon uptake after acetoxymethyl ester hydrolysis by intracellular esterases. Calcein-AM dye requires very small quantities of cells while maintaining the same sensitivity as the traditional ^51Cr assay. Once taken up by the cell, free calcein is generally membrane impermeable and only permeates through gap junctions. Although there is some leakage over the incubation period, this is accounted for through the use of a control of HUVEC alone, labelled with Calcein-AM and used to determine the baseline fluorescence level accounting for normal cellular processes.
Peripheral blood neutrophils were primed to enhance expression of the PR-3 receptor (proteinase 3) with 50 U/mL TNF. A high proportion of membrane PR3 positive neutrophils is a risk factor for the development of vasculitis, and elevated membrane PR3 levels are associated with a higher relapse rate in patients with Wegener granulomatosis. Activated neutrophils were then added (5×10^5 neutrophils/well) to plated calcein labeled HUVEC to produce an inflammatory response. Four dose concentrations of A1PI (0.25, 0.5, 1.0 and 2.0 mg/mL) and one dose of elafin (0.25 mg/mL) were evaluated for prevention of the activation of neutrophils and lysis of the cells. One dose concentration of the negative control al antichymotrypsin (0.25 mg/mL) was evaluated.
Three a-PR-3 MoAbs [monoclonal antibodies (15 μg/mL of α-PR3 WGM2 and 5 μg/ml each of a-PR3 4A5 and α-PR 6A6, for a total of 25 μg/mL)] were added to activate the neutrophils to attack the HUVEC, causing lysis of the HUVEC. α-PR3 4A5 and α-PR3 6A6 clones were obtained from Eurodiagnostica and the α-PR3 WGM2 from Abcam. These 3 clones were selected to provide a model of the polyclonal response that would be seen in vivo and represent three binding sites on the PR-3 receptor (Van Der Geld, Characterization of monoclonal antibodies to PR3 as candidate tools for epitope mapping or human anti-PR3 autoantibodies, 1999). After addition of the activated neutrophils, test compounds and α-PR3 mAbs, cells were incubated for 4 hours at 37° C. Following incubation the supernatant was evaluated for fluorescence. When neutrophils attack the HUVEC and cell lysis occurs, the fluorescent calcein label is released from damaged membranes and measured in the supernatants.
A1PI provided a response that was dose dependent and directional in nature. The mean fluorescence was determined from […] aliquots of supernatant from each well, with 6 wells for each condition (18 replicates total). […]

[2] = biological target: T1, proteinase-3 (Homo sapiens, UniProt P24158); details: cited from earlier work
T1 sequence (P24158 28-248): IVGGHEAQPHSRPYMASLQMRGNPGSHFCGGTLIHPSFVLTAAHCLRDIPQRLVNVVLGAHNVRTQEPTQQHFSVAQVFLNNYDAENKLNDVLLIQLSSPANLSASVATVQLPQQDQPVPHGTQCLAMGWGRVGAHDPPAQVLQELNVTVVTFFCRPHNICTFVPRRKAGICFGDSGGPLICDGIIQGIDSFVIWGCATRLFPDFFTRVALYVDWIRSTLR

[3] = biological target: T1, proteinase-3; details: Nobar et al, FEBS 272 (2005); cited from earlier work

## Elafin: mature product of Trappin-2, C-terminal 57 amino acids (61-117 of SEQ ID NO: 9); AnaSpec Cat. No. AS-61641 (AQEPVKGPVSTKPGSCPIILIRCAMLNPPNRCLKDTDCPGIKKCCEGSCGMACFVPQ; listed as Homo sapiens)
[1]
  % Release: 6.2%
  Mean (fluorescence): 5455.7
  response in fluorescence release: showed a functional response
[2]
  equilibrium dissociation constant (Ki) for proteinase-3/elafin association: 20 nM
[3]
  Ki values: sub-nanomolar range

## Trappin-2: precursor of elafin, 117 amino acids, SEQ ID NO: 9
[2]
  K of Proteinase-3/Trappin-2 associations: 12 nm
[3]
  Ki values: sub-nanomolar range

B1: Negative K: negative control α1-antichymotrypsin (Athens Research & Technology), structurally similar to A1PI, lacks activity against the PR3 receptor (protein)
chain: HPNSPLDEENLTQENQDRGTHVDLGLASANVDFAFSLYKQLVLKAPDKNVIFSPLSISTALAFLSLGAHNTTLTEILKGLKFNLTETSEAEIHQSFQHLLRTLNQSSDELQLSMGNAMFVKEQLSLLDRFTEDAKRLYGSEAFATDFQDSAAAKKLINDYVKNGTRGKITDLIKDLDSQTMMVLVNYIFFKAKWEMPFDPQDTHQSRFYLSKKKWVMVPMMSLHHLTIPYFRDEELSCTVVELKYTGNASALFILPDQDKMEEVEAMLLPETLKRWRDSLEFREIGELYLPKFSISRDYNLNDILLQLGIEEAFTSKADLSGITGARNLAVSQVVHKAVLDVFEEGTEASAATAVKITLLSALVETRTIVRFNRPFLMIIVPTDTQNIFFMSKVTNPKQA
[1]
  % Release: 21.9%
  Mean (fluorescence): 4417.7
  response in fluorescence release: failing to provide a meaningful change

From patent publication US12702701B2, “Compositions and methods for treating granulomatosis with polyangiitis” (Canem Holdings, LLC, priority 2015, dated 2026)
